This data set concerns rabbit red blood cells. The settings on record: 37° C., 1 h, FIG. 6.

Like-named read-outs stand apart in the source and are kept apart here.

For the substance “TrSub (EFGAGKAQCAAAWLQCASGGTLGCGGGAVACQNYRQFQCRAA; the amino acid sequence of the recombinant antimicrobial peptide TrSub)”, the “hemolytic activity (hemolysis rate)” value reads like this: (2MIC concentration) “below 10%”; (MIC concentration) “below 10%”.

The values are drawn from patent publication US20230329283A1 (priority 2021, published 2023).
